What was measured:
[1] = target: T1, recombinant human PD-L1 protein (Item No. 10084-H08H, Sino Biological) (human, UniProt Q9NZQ7 19-238); assay: SPR, Biacore 8K, antibody captured as ligand, PD-L1 analyte, 1:1 model
T1 construct: Bought protein; also called huPD-L1; human PD-L1 antigen

[2] = target: T1, recombinant human PD-L1 protein (Item …); assay: SPR, humanization screening
[3] = target: T2, human PD-L1 on CHO-K1-huPD-L1 cells (human, UniProt Q9NZQ7 19-290); assay: cell-based or functional assay
[4] = target: T1, recombinant human PD-L1 protein (Item …); assay: SPR, Biacore 8K, antibody captured on anti-human chip, huPD-L1 analyte, 1:1 model
Method: The Anti-Human Capture-CM5 chips (Item No.: BR-1005-30, GE) were prepared according to the coupling method of the Human Antibody Captrue Kit (Item No.: BR-1008-39, GE) and the amino coupling kit (Item No.: BR-1000-50, GE). The chips were equilibrated at room temperature for 20-30 min and assembled into the Biacore 8K instrument. B5D1 was diluted to the experimental working concentration with the equilibrium buffer. The antigen was diluted to 50 nM with the equilibrium buffer, and then diluted to give samples with 7 concentration gradients by 3× serial dilution, and 2 samples with zero concentration (i.e. the equilibrium buffer) and a duplicate sample with one concentration (typically, a duplicate sample with the minimum concentration) were set. According to the antibody, the antigen huPD-L1 (Item No.: 10084-H08H, Sino Biological), and the regeneration order, the samples with 10 antigen concentrations (2 with zero concentration, 7 with gradient concentrations and 1 with duplicate concentration) were subject to experimental analysis with an antigen injection flow rate of 30 μl/min, the binding time of 120 seconds, and the dissociation time of 600 seconds.

[5] = target: T1, recombinant human PD-L1 protein (Item …); assay: ELISA, humanization screening
[6] = target: T3, human PD-L1-moFc recombinant protein (human); assay: flow cytometry, blocking of PD-L1-moFc binding to CHO-K1-huPD-1 cells
T3 construct: also called free PD-L1
Method: The antibodies to be tested were diluted with 3-fold gradient, added at 20 μL/well into the 96-well plate with the antigen added, mixed well, and incubated at room temperature for 15 min. CHO-K1-huPD-1 cells overexpressing human PD-1 were added at 2×10⁴/well into the 96-well plate pre-incubated with antigen-antibody, mixed well, and incubated at room temperature for 15 min. The mixture was centrifuged at 300 g for 5 min, the supernatant was removed, and the cells were washed twice with FACS buffer. Anti-moFc-Alexa 488 (Item No.: 115-545-071, Jackson) secondary antibodies were diluted at 1:300, added, mixed well, and incubated at room temperature for 15 min. The cells were washed three times and measured on instrument for the fluorescence intensity on their surfaces.

[7] = target: T2, human PD-L1 on CHO-K1-huPD-L1 cells; assay: flow cytometry on CHO-K1-huPD-L1 cells; parent chimeric antibody
Method: CHO-K1-huPD-L1 cells overexpressing human PD-L1 were plated in a 96-well plate at 2×10⁴/well, and the 3-fold serial gradient dilutions of the samples to be tested were added at 20 μl/well, and co-incubated with the cells at room temperature for 30 min. The cells were washed by centrifugation to remove unbound antibodies, and 20 μl of R-Phycoerythrin AffiniPure Goat Anti-Human IgG, Fcγ Fragment Specific (Item No.: 109-115-098, Jackson ImmunoResearch; diluted with 1% (w/v) BSA-PBS at 1:200) fluorescent secondary antibodies were added to each well, and incubated for 15 min. The cells were then washed twice, resuspended in 100 μl of 1% (w/v) BSA-PBS, and detected for their fluorescence intensity at 585 nm by flow cytometry (BD, FACS Cantoll) under 488 nm excitation.

T1 sequence (Q9NZQ7 19-238 limits assumed): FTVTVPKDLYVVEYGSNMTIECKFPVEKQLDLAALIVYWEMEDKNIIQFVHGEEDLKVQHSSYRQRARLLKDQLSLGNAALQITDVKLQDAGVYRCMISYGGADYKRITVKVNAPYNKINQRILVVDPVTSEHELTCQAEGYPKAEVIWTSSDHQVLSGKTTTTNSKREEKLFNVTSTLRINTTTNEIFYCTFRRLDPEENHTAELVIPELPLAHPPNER
T2 sequence (Q9NZQ7 19-290): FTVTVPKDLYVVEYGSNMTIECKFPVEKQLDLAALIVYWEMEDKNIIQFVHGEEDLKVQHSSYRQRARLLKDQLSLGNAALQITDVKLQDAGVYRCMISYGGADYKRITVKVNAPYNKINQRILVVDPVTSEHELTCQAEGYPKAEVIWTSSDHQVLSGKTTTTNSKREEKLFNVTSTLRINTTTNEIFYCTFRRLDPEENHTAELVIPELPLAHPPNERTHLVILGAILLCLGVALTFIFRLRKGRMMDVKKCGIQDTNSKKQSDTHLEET
T3 sequence (chain, as listed by the source limits assumed): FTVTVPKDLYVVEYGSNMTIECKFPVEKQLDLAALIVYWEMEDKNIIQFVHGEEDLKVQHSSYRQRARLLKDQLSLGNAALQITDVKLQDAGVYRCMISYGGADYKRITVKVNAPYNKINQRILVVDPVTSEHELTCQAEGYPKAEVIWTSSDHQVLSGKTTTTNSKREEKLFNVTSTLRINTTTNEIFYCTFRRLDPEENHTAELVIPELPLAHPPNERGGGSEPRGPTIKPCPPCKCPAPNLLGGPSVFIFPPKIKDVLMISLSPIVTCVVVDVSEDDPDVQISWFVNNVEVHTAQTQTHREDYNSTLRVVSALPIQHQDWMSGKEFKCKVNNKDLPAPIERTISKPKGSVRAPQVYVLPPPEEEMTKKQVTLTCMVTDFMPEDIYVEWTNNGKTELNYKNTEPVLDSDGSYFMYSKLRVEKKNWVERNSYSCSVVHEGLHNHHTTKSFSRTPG

Kd [1]: 0.346 nM
koff [1]: 0.000127 s⁻¹
kon [1]: 368000 M⁻¹ s⁻¹
Kd [2]: 0.72 nM
EC50, T cell activation (NFAT-luciferase RLU, Jurkat-NFAT-PD-1-5B8 effector cells with CHO-K1-OS8-PD-L1-8D6 target cells) [3]: 0.287 µg/mL
Kd [4]: 0.0773 nM
koff [4]: 9.54e-05 s⁻¹
kon [4]: 1.24e+06 M⁻¹ s⁻¹
EC50 [5]: 0.499 µg/mL
IC50 [6]: 2.84 µg/mL
EC50 [7]: 0.125 µg/mL
B1: chimeric antibody 900245 (antibody, V domains shown)
VH: QIQLQQSGPELVKPGASVKISCKASGYTFTDYYINWVKQRPGQGLEWIGWIYLGSGNAKYNEKFKGKATLTVDTSSSTAYMHLSSLTSEDSAVYFCARCVGTYWYFDVWGAGTTVTVSS
VL: QILLTQSPATMSASPGEKVTMTCSASSSVSYMHWYQQKPGSSPKPWIYDTSNVASGFPARFSGSGSGTSYSLIISSMEAEDAATYYCHQRSSYPWTFGGGTKLEIK
notes: also called parent chimeric antibody; anti-PD-L1 human-mouse chimeric antibody

— patent US20250074988A1 (SHANGHAI HUAOTA BIOPHARMACEUTICAL, published 2025)
